Results published in PMC4830470 (Nature, 2015).

Target: the molecule itself
Test: SEC

B1: human class A J-protein DNAJA2 (JA2), wild type (natural protein)
chain: not shown
- stoichiometry N: 2
